The experiment deals with cGAS (cyclic GMP-AMP synthase) of the Serratia marcescens E2-CBASS operon, N-terminal 6×His-tag (Serratia marcescens). As to the kind of experiment: in vitro covalent bonding assay.

Take “E2 of the Serratia marcescens E2-CBASS operon, N-terminal 6×His-tag (enzyme)”: the rate of isopeptide bond (+DTT) formation was determined as 0.5 min⁻¹ and the rate of total bond (thioester+isopeptide, -DTT) formation was 0.63 min⁻¹.

Source of the values: paper doi:10.1101/2022.05.25.493364.
